Measured values taken from publication PMC4269863.

Tests used:
[1] = target: envelope glycoproteins gp120/gp41 of HIV-1 NL4.3 virus with gp41 N637Q (HIV-1 NL4.3)
[2] = target: envelope glycoproteins gp120/gp41 of HIV-1 NL4.3 virus with gp41 N674Q (HIV-1 NL4.3)
[3] = target: envelope glycoproteins gp120/gp41 of HIV-1 NL4.3 virus with gp41 N625Q (HIV-1 NL4.3)
[4] = target: envelope glycoproteins gp120/gp41 of HIV-1 NL4.3 virus with gp41 N611Q (HIV-1 NL4.3)
[5] = target: envelope glycoproteins gp120/gp41 of wild-type HIV-1 NL4.3 virus (HIV-1 NL4.3)
[6] = target: envelope glycoproteins gp120/gp41 of HIV-1 NL4.3 virus with gp41 N611Q/N637Q (HIV-1 NL4.3)
[7] = target: envelope glycoproteins gp120/gp41 of HIV-1 NL4.3 virus with gp41 N625Q/N637Q/N674Q (HIV-1 NL4.3)
[8] = target: envelope glycoproteins gp120/gp41 of HIV-1 NL4.3 virus with gp41 N625Q/N674Q (HIV-1 NL4.3)
[9] = target: envelope glycoproteins gp120/gp41 of HIV-1 NL4.3 virus with gp41 N611Q/N637Q/N674Q (HIV-1 NL4.3)
[10] = target: envelope glycoproteins gp120/gp41 of HIV-1 NL4.3 virus with gp41 N625Q/N637Q (HIV-1 NL4.3)
[11] = target: envelope glycoproteins gp120/gp41 of HIV-1 NL4.3 virus with gp41 N637Q/N674Q (HIV-1 NL4.3)
[12] = target: envelope glycoproteins gp120/gp41 of HIV-1 NL4.3 virus with gp41 N674D (HIV-1 NL4.3)
[13] = target: HIV-1 surface envelope glycoprotein gp120 (immobilised for SPR) (HIV-1 (strain not stated)) (UniProt P04578); assay: SPR; gp120 and gp41 covalently immobilised by amine coupling on a CM4 chip (about 115 and 45 RU), HSA as control surface; CBAs injected as two-fold dilutions; Biacore T200, 25°C, HBS-P (10 mM HEPES, 150 mM NaCl, 0.05% surfactant P20, pH 7.4) with 10 mM CaCl2; 1:1 Langmuir model
[14] = target: HIV-1 transmembrane envelope glycoprotein gp41 (immobilised for SPR) (HIV-1 (strain not stated)) (UniProt P04578); assay: as above
soluble CD4 = soluble CD4 (UniProt P01730); assay: ELISA; 0.5 μg soluble CD4 coated on maxisorp strips; about 48 ng p24 of virus lysed with Triton-X100 added 1 h at 37°C; bound gp120 detected with sheep antibody D7324; normalised to WT∆Env virus, relative to WT (100%)

Chain of actinohivin (Q9KWN0 47-160): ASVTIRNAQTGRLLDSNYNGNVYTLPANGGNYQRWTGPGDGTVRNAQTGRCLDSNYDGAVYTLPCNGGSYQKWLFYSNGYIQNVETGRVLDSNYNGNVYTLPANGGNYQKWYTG

Which EC50 of inhibition of cell-free virus infection of C8166 cells (eGFP, flow cytometry, 72 h) [1] does the source give for “Hippeastrum hybrid agglutinin (natural protein)” here?
The EC50 of inhibition of cell-free virus infection of C8166 cells (eGFP, flow cytometry, 72 h) was 3.7 nM.

And the EC50 of inhibition of cell-free virus infection of C8166 cells (eGFP, flow cytometry, 72 h) [2]?
The EC50 of inhibition of cell-free virus infection of C8166 cells (eGFP, flow cytometry, 72 h) was 1.3 nM.

What about the EC50 of inhibition of cell-free virus infection of C8166 cells (eGFP, flow cytometry, 72 h) [3] of the same substance?
The EC50 of inhibition of cell-free virus infection of C8166 cells (eGFP, flow cytometry, 72 h) was 1.4 nM.

What about the EC50 of inhibition of cell-free virus infection of C8166 cells (eGFP, flow cytometry, 72 h) [4] of the same substance?
Its EC50 of inhibition of cell-free virus infection of C8166 cells (eGFP, flow cytometry, 72 h) is 1.6 nM.

And the EC50 of inhibition of cell-free virus infection of C8166 cells (eGFP, flow cytometry, 72 h) [5]?
Its EC50 of inhibition of cell-free virus infection of C8166 cells (eGFP, flow cytometry, 72 h) is 0.9 nM.

What about the EC50 of inhibition of cell-free virus infection of C8166 cells (eGFP, flow cytometry, 72 h) [6] of the same substance?
Its EC50 of inhibition of cell-free virus infection of C8166 cells (eGFP, flow cytometry, 72 h) is 2.7 nM.

What about the EC50 of inhibition of cell-free virus infection of C8166 cells (eGFP, flow cytometry, 72 h) [7] of the same substance?
The EC50 of inhibition of cell-free virus infection of C8166 cells (eGFP, flow cytometry, 72 h) was 2.1 nM.

What about the EC50 of inhibition of cell-free virus infection of C8166 cells (eGFP, flow cytometry, 72 h) [8] of the same substance?
Its EC50 of inhibition of cell-free virus infection of C8166 cells (eGFP, flow cytometry, 72 h) is 1.3 nM.

And the EC50 of inhibition of cell-free virus infection of C8166 cells (eGFP, flow cytometry, 72 h) [9]?
Its EC50 of inhibition of cell-free virus infection of C8166 cells (eGFP, flow cytometry, 72 h) is 2.8 nM.

What about the EC50 of inhibition of cell-free virus infection of C8166 cells (eGFP, flow cytometry, 72 h) [10] of the same substance?
The EC50 of inhibition of cell-free virus infection of C8166 cells (eGFP, flow cytometry, 72 h) was 1.4 nM.

And the EC50 of inhibition of cell-free virus infection of C8166 cells (eGFP, flow cytometry, 72 h) [11]?
Its EC50 of inhibition of cell-free virus infection of C8166 cells (eGFP, flow cytometry, 72 h) is 1.6 nM.

And the EC50 of inhibition of cell-free virus infection of C8166 cells (eGFP, flow cytometry, 72 h) [12]?
The EC50 of inhibition of cell-free virus infection of C8166 cells (eGFP, flow cytometry, 72 h) was 1.9 nM.

And the Kd [13]?
The Kd was 0.5 nM.

And the Kd [14]?
Its Kd is 0.4 nM.

“Urtica dioica agglutinin (natural protein)” was tested. Which EC50 of inhibition of cell-free virus infection of C8166 cells (eGFP, flow cytometry, 72 h) [1] did it give?
Its EC50 of inhibition of cell-free virus infection of C8166 cells (eGFP, flow cytometry, 72 h) is 57 nM.

What about the EC50 of inhibition of cell-free virus infection of C8166 cells (eGFP, flow cytometry, 72 h) [2] of the same substance?
The EC50 of inhibition of cell-free virus infection of C8166 cells (eGFP, flow cytometry, 72 h) was 32 nM.

And the EC50 of inhibition of cell-free virus infection of C8166 cells (eGFP, flow cytometry, 72 h) [3]?
The EC50 of inhibition of cell-free virus infection of C8166 cells (eGFP, flow cytometry, 72 h) was 27 nM.

And the EC50 of inhibition of cell-free virus infection of C8166 cells (eGFP, flow cytometry, 72 h) [4]?
The EC50 of inhibition of cell-free virus infection of C8166 cells (eGFP, flow cytometry, 72 h) was 32 nM.

And the EC50 of inhibition of cell-free virus infection of C8166 cells (eGFP, flow cytometry, 72 h) [5]?
Its EC50 of inhibition of cell-free virus infection of C8166 cells (eGFP, flow cytometry, 72 h) is 25 nM.

What about the EC50 of inhibition of cell-free virus infection of C8166 cells (eGFP, flow cytometry, 72 h) [6] of the same substance?
The EC50 of inhibition of cell-free virus infection of C8166 cells (eGFP, flow cytometry, 72 h) was 63 nM.

And the EC50 of inhibition of cell-free virus infection of C8166 cells (eGFP, flow cytometry, 72 h) [7]?
The EC50 of inhibition of cell-free virus infection of C8166 cells (eGFP, flow cytometry, 72 h) was 35 nM.

What about the EC50 of inhibition of cell-free virus infection of C8166 cells (eGFP, flow cytometry, 72 h) [8] of the same substance?
Its EC50 of inhibition of cell-free virus infection of C8166 cells (eGFP, flow cytometry, 72 h) is 30 nM.

What about the EC50 of inhibition of cell-free virus infection of C8166 cells (eGFP, flow cytometry, 72 h) [9] of the same substance?
The EC50 of inhibition of cell-free virus infection of C8166 cells (eGFP, flow cytometry, 72 h) was 52 nM.

What about the EC50 of inhibition of cell-free virus infection of C8166 cells (eGFP, flow cytometry, 72 h) [10] of the same substance?
The EC50 of inhibition of cell-free virus infection of C8166 cells (eGFP, flow cytometry, 72 h) was 51 nM.

What about the EC50 of inhibition of cell-free virus infection of C8166 cells (eGFP, flow cytometry, 72 h) [11] of the same substance?
The EC50 of inhibition of cell-free virus infection of C8166 cells (eGFP, flow cytometry, 72 h) was 28 nM.

And the EC50 of inhibition of cell-free virus infection of C8166 cells (eGFP, flow cytometry, 72 h) [12]?
The EC50 of inhibition of cell-free virus infection of C8166 cells (eGFP, flow cytometry, 72 h) was 34 nM.

And the Kd [13]?
Its Kd is 9 nM.

And the Kd [14]?
The Kd was 3.7 nM.

How did the EC50 of inhibition of cell-free virus infection of C8166 cells (eGFP, flow cytometry, 72 h) [1] turn out when “actinohivin (from UniProt Q9KWN0 47-160) (natural protein)” was run?
The EC50 of inhibition of cell-free virus infection of C8166 cells (eGFP, flow cytometry, 72 h) was 15 nM.

And the EC50 of inhibition of cell-free virus infection of C8166 cells (eGFP, flow cytometry, 72 h) [2]?
The EC50 of inhibition of cell-free virus infection of C8166 cells (eGFP, flow cytometry, 72 h) was 8.3 nM.

And the EC50 of inhibition of cell-free virus infection of C8166 cells (eGFP, flow cytometry, 72 h) [3]?
The EC50 of inhibition of cell-free virus infection of C8166 cells (eGFP, flow cytometry, 72 h) was 8.1 nM.

What about the EC50 of inhibition of cell-free virus infection of C8166 cells (eGFP, flow cytometry, 72 h) [4] of the same substance?
The EC50 of inhibition of cell-free virus infection of C8166 cells (eGFP, flow cytometry, 72 h) was 5.4 nM.

What about the EC50 of inhibition of cell-free virus infection of C8166 cells (eGFP, flow cytometry, 72 h) [5] of the same substance?
The EC50 of inhibition of cell-free virus infection of C8166 cells (eGFP, flow cytometry, 72 h) was 5.2 nM.

What about the EC50 of inhibition of cell-free virus infection of C8166 cells (eGFP, flow cytometry, 72 h) [6] of the same substance?
The EC50 of inhibition of cell-free virus infection of C8166 cells (eGFP, flow cytometry, 72 h) was 3 nM.

What about the EC50 of inhibition of cell-free virus infection of C8166 cells (eGFP, flow cytometry, 72 h) [7] of the same substance?
Its EC50 of inhibition of cell-free virus infection of C8166 cells (eGFP, flow cytometry, 72 h) is 3.2 nM.

And the EC50 of inhibition of cell-free virus infection of C8166 cells (eGFP, flow cytometry, 72 h) [8]?
The EC50 of inhibition of cell-free virus infection of C8166 cells (eGFP, flow cytometry, 72 h) was 3.2 nM.

What about the EC50 of inhibition of cell-free virus infection of C8166 cells (eGFP, flow cytometry, 72 h) [9] of the same substance?
Its EC50 of inhibition of cell-free virus infection of C8166 cells (eGFP, flow cytometry, 72 h) is 3.6 nM.

And the EC50 of inhibition of cell-free virus infection of C8166 cells (eGFP, flow cytometry, 72 h) [10]?
The EC50 of inhibition of cell-free virus infection of C8166 cells (eGFP, flow cytometry, 72 h) was 3.8 nM.

What about the EC50 of inhibition of cell-free virus infection of C8166 cells (eGFP, flow cytometry, 72 h) [11] of the same substance?
The EC50 of inhibition of cell-free virus infection of C8166 cells (eGFP, flow cytometry, 72 h) was 4.3 nM.

And the EC50 of inhibition of cell-free virus infection of C8166 cells (eGFP, flow cytometry, 72 h) [12]?
Its EC50 of inhibition of cell-free virus infection of C8166 cells (eGFP, flow cytometry, 72 h) is 2.1 nM.

And the Kd [13]?
The Kd was 14 nM.

And the Kd [14]?
The Kd was 2 nM.

“envelope glycoproteins gp120/gp41 of HIV-1 NL4.3 virus with gp41 N625Q (complex)” was tested. Which binding efficiency, percent of WT (soluble CD4) did it give?
The binding efficiency, percent of WT was 130 % of WT.
